Experimental data published in publication PMC7943601, “Substrate-engaged type III secretion system structures reveal gating mechanism for unfolded protein translocation” (Nature Communications, 2021).

B1: PrgK (natural protein)
chain: CKDKDLLKGLDQEQANEVIAVLQMHNIEANKIDSGKLGYSITVAEPDFTAAVYWIKTYQLPPRPRVEIAQMFPADSLVSSPRAEKARLYSAIEQRLEQSLQTMEGVLSARVHISYDIDAGENGRPPKPVHLSALAVYERGSPLAHQISDIKRFLKNSFADVDYDNISVVLSERSDAQLQAPGTPVKRNSFATSWIVLIILLSVMSAGFGVWYYKNHYARNKKGITADDKAKSSNE
notes: PrgK, basal body ring protein of the S. enterica sv; Typhimurium injectisome; also called PrgK_(1-24); copies: 24
B2: SpaQ (natural protein)
chain: MDDLVFAGNKALYLVLILSGWPTIVATIIGLLVGLFQTVTQLQEQTLPFGIKLLGVCLCLFLLSGWYGEVLLSYGRQVIFLALAKG
notes: also called SpaQ1-4
B3: PrgI (natural protein)
chain: MATPWSGYLDDVSAKFDTGVDNLQTQVTEALDKLAAKPSDPALLAAYQSKLSEYNLYRNAQSNTVKVFKDIDAAIIQNFR
notes: PrgI, needle filament protein of the S. enterica sv; Typhimurium injectisome; Helical filament; 72 subunits were modelled in the substrate-trapped map; also called PrgI_(1-72); needle filament protein
B4: SpaR (natural protein)
chain: MFYALYFEIHHLVASAALGFARVAPIFFFLPFLNSGVLSGAPRNAIIILVALGVWPHALNEAPPFLSVAMIPLVLQEAAVGVMLGCLLSWPFWVMHALGCIIDNQRGATLSSSIDPANGIDTSEMANFLNMFAAVVYLQNGGLVTMVDVLNKSYQLCDPMNECTPSLPPLLTFINQVAQNALVLASPVVLVLLLSEVFLGLLSRFAPQMNAFAISLTVKSGIAVLIMLLYFSPVLPDNVLRLSFQATGLSSWFYERGATHVLE
notes: SpaR, export apparatus protein of the S. enterica sv; Typhimurium injectisome; One copy in the export apparatus
B5: InvG (natural protein)
chain: SEKIPVTGSGFVAKDDSLRTFFDAMALQLKEPVIVSKMAARKKITGNFEFHDPNALLEKLSLQLGLIWYFDGQAIYIYDASEMRNAVVSLRNVSLNEFNNFLKRSGLYNKNYPLRGDNRKGTFYVSGPPVYVDMVVNAATMMDKQNDGIELGRQKIGVMRLNNTFVGDRTYNLRDQKMVIPGIATAIERLLQGEEQPLGNIVSSEPPAMPAFSANGEKGKAANYAGGMSLQEALKQNAAAGNIKIVAYPDTNSLLVKGTAEQVHFIEMLVKALDVAKRHVELSLWIVDLNKSDLERLGTSWSGSITIGDKLGVSLNQSSISTLDGSRFIAAVNALEEKKQATVVSRPVLLTQENVPAIFDNNRTFYTKLIGERNVALEHVTYGTMIRVLPRFSADGQIEMSLDIEDGNDKTPQSDTTTSVDALPEVGRTLISTIARVPHGKSLLVGGYTRDANTDTVQSIPFLGKLPLIGSLFRYSSKNKSNVVRVFMIEPKEIVDPLTPDASESVNNILKQSGAWSGDDKLQKWVRVYLDRGQEAIK
notes: InvG, basal body ring protein (outer rings) of the S. enterica sv; Typhimurium injectisome; modelled as G34-I173 (lower OR) and E174-G557 (upper OR); Printed as InvG_(1-15/16); the upper outer ring was built in a C15-symmetrized map; also called InvG_(1-15/16); outer rings
B6: PrgH (natural protein)
chain: METSKEKTITSPGPYIVRLLNSSLNGCEFPLLTGRTLFVVGQSDALTASGQLPDIPADSFFIPLDHGGVNFEIQVDTDATEIILHELKEGNSESRSVQLNTPIQVGELLILIRPESEPWVPEQPEKLETSAKKNEPRFKNGIVAALAGFFILGIGTVGTLWILNSPQRQAAELDSLLGQEKERFQVLPGRDKMLYVAAQNERDTLWARQVLARGDYDKNARVINENEENKRISIWLDTYYPQLAYYRIHFDEPRKPVFWLSRQRNTMSKKELEVLSQKLRALMPYADSVNITLMDDVTAAGQAEAGLKQQALPYSRRNHKGGVTFVIQGALDDVEILRARQFVDSYYRTWGGRYVQFAIELKDDWLKGRSFQYGAEGYIKMSPGHWYFPSPL
notes: PrgH, basal body ring protein of the S. enterica sv; Typhimurium injectisome; also called PrgH_(1-24); copies: 24
B7: SpaP (natural protein)
chain: MGNDISLIALLAFSTLLPFIIASGTCFVKFSIVFVMVRNALGLQQIPSNMTLNGVALLLSMFVMWPIMHDAYVYFEDEDVTFNDISSLSKHVDEGLDGYRDYLIKYSDRELVQFFENAQLKRQYGEETETVKRDKDEIEKPSIFALLPAYALSEIKSAFKIGFYLYLPFVVVDLVVSSVLLALGMMMMSPVTISTPIKLVLFVALDGWTLLSKGLILQYMDIAT
notes: SpaP, export apparatus protein of the S. enterica sv; Typhimurium injectisome; Five copies in the export apparatus (SpaP : Q : R 5 : 4 : 1); also called SpaP1-5; SpaP pentamer

Key:
Assay in all cases: cryo-EM structure
cryo-EM structure = target: the molecule itself
SpaP = target: B7; details: both partners purified
SpaR = target: B4; details: both partners purified
PrgJ = target: T1, PrgJ (S. enterica sv. Typhimurium (endogenous …, UniProt P41785 1-101)); details: both partners purified
T1 construct: PrgJ, inner rod protein of the S. enterica sv; Typhimurium injectisome; Six protomers form the inner rod; also called PrgJ1-6; inner rod protein

InvG = target: B5; details: both partners purified

T1 sequence (P41785 whole entry): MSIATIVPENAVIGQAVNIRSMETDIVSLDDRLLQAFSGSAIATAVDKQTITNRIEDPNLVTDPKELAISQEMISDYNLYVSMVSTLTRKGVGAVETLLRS

**Q.** With B1 as the binder, how does the “stoichiometry N” value (cryo-EM structure) read?
**A.** The value was 24.

**Q.** Does B2 bind (SpaP)?
**A.** Result: binds

**Q.** What about the “stoichiometry N” value (cryo-EM structure) of the same binder?
**A.** Its value is 4.

**Q.** Does B2 bind (SpaR)?
**A.** Result: binds

**Q.** Does B3 bind (SpaP)?
**A.** Result: binds

**Q.** Does B3 bind (cryo-EM structure)?
**A.** Result: binds

**Q.** Does B3 bind (PrgJ)?
**A.** Result: binds

**Q.** Does B3 bind (InvG)?
**A.** Result: binds

**Q.** Does B4 bind (PrgJ)?
**A.** Result: binds

**Q.** Does B5 bind (PrgJ)?
**A.** Result: binds

**Q.** With B6 as the binder, how does the “stoichiometry N” value (cryo-EM structure) read?
**A.** The value was 24.

**Q.** With B7 as the binder, how does the “stoichiometry N” value (cryo-EM structure) read?
**A.** The value was 5.

**Q.** Does B7 bind (PrgJ)?
**A.** Result: binds

**Q.** Does B7 bind (SpaR)?
**A.** Result: binds
